In patent US20130177528A1, “COMPOSITIONS AND METHODS FOR INHIBITING VIRAL INFECTION” (WESTERN UNIVERSITY OF HEALTH SCIENCES, priority 2011, published 2013):

How the values were obtained:
[1] = test system: β-galactosidase-expressing recombinant Adenovirus; assay: Adenovirus infection of HeLa cells (Example 7); assay type: cell-based; settings: pre-incubated 90 min
Method: HeLa cells were infected with a β-galactosidase-expressing recombinant Adenovirus were pre-incubated with CN at (1) the dilution indicated in FIG. 11, panel A (stock concentration 22 nM) or (2) the concentrations indicated in FIG. 11, panel B, or mock treated with 1 X phosphate saline buffer for 90 min at room temperature. After 12 hr, the cells were washed, permeabilized and incubated with ONPG substrate (3.0 mg/ml) for quantitation of β-galactosidase activity expressed from the input viral genome. Positive (Pos) infected with virus alone; Negative (Neg) uninfected control. The enzymatic activity was measured at an optical density of 410 nm (OD 410).

[2] = test system: HSV-1 (KOS) gL86; assay: HSV-1 entry into natural target cells (HeLa, human corneal fibroblasts), cells pre-incubated with CN (Example 9); assay type: cell-based, herpes simplex virus type-1; settings: for HSV-1 entry (β-galactosidase activity, OD 410): 25 pfu/cell, 6 h
Method: In this experiment (A) HeLa and (B) primary cultures of human corneal fibroblasts (CF) were used. They were either pre-treated with contortrostatin (CN) at indicated concentrations or mock-treated (positive control [+]) with phosphate saline buffer for 90 min at room temperature. β-galactosidase-expressing recombinant virus herpes simplex virus type-1 (HSV-1; KOS) gL86 (25 pfu/cell) was used to infect cells. Uninfected cells were kept as negative control (−). After 6 h, the cells were washed, permeabilized and incubated with […] expressed from the input viral genome. The enzymatic activity was measured at an optical density of 410 nm (OD 410). Error bars represent SD. a=significant difference from controls and/or treatments (P<0.05, t-test).
To confirm blocking activity of CN on HSY-I entry, HeLa and primary cultures of human CF were used. It has been shown that HeLa and human CF naturally express gD receptors. […] This raises the possibility that the effect of CN can be more pronounced in the natural target cells and that it may not depend on gD receptors. […] The inhibitory effect is likely dependent on the type of integrins expressed on the surface of cells.

[3] = test system: HSV-2 (333 gJ-reporter virus); assay: HSV-2 infection of HeLa cells, ONPG assay (Example 4); assay type: cell-based; settings: virus pre-incubated; starting concentration 1 mg/ml
Method: In this experiment different clinical strains of HSV-1 (F, G, and MP strains of HSV-1 [37] at 25 pfu/cell) were either pre-incubated with 1×PBS (control) or with CN at the concentrations indicated in FIG. 8, panel A for 90 min at room temperature. After 90 min of incubation the two pools of viruses were incubated with Nectin-1 receptor expressing CHO Igβ cells that express β-galactosidase upon viral entry as described. The viral infection blocking was measured by ONPG assay (FIG. 8, panel A). Similar experiment was conducted using Lac Z encoded HSV-2 (333 gJ-reporter virus). HSV-2 is a genital herpes virus. […] Each value shown is the mean of three or more determinations (±SD).

[4] = test system: HSV-1 (KOS) gL86; assay: HSV-1 entry into CHO-K1 cells expressing gD receptors, virus pre-incubated with CN (Example 2); assay type: cell-based, herpes simplex virus type-1; settings: virus 30 pfu/cell pre-incubated 90 min, read after 6 hr
Method: Viral Entry Assay. Viral entry assays were based on quantitation of β-galactosidase expressed from the viral genome in which β-galactosidase expression is inducible by HSV infection. Cells were transiently transfected in 6-well tissue culture dishes, using Lipofectamine 2000 (In vitrogen Corp) with plasmids expressing HSV-1 entry receptors (necitn-1, HVEM and 3-OST-3 expression plasmids) at 1.5 μg per well in 1 ml. At 24 hr post-transfection, cells were re-plated in 96-well tissue culture dishes (2×10^4 cells per well) at least 16 hr prior to infection. Cells were washed and exposed to serially dilute pre-incubated virus with […] or with 1×PBS at two fold dilutions for 2 hr at room temperature. In a parallel experiment the cells were also pre-incubated with NBE for 2 hr at room temperature before infection with virus. Later the cells were washed with 1×PBS and allowed 6 hr at 37° C. before solubilization in 100 μl of PBS containing 0.5% NP-40 and the -galactosidase substrate, o-nitro-phenyl-D-galactopyranoside (ONPG; ImmunoPure, PIERCE, Rockford, Ill., 3 mg/ml). The enzymatic activity was monitored at 410 nm by spectrophotometry at several time points after the addition of ONPG in order to define the interval over which the generation of the product was linear with time. Microscopy was performed using 20×objective of the microscope (Nikon). The slide book version 3.0 was used for images. All experiments were repeated a minimum of three times.
CN blocks herpes simplex virus type-1 (HSV-1) entry into CHO-K1 cells expressing gD receptors. […] After 6 hr at 37° C., the cells were washed, permeabilized with 100 μl of PBS containing 0.5% NP-40 and incubated with ONPG substrate (3.0 mg/ml) for quantitation of β-galactosidase activity expressed from the input viral genome. The enzymatic activity was measured at an optical density of 410 nm (OD 410).

B1: contortrostatin (protein)
chain: DAPANPCCDAATCKLTTGSQCADGLCCDQCKFMKEGTVCRRARGDDLDDYCNGISAGCPRNPFHA
B1 was tested, and the “Adenovirus infection of HeLa cells (β-galactosidase activity, OD 410)” value ([1]; 12 hr) was “blocks infection”, the IC50 ([1]; β-galactosidase read after 12 hr) was 2.75 nM and the “HSV-1 entry (β-galactosidase activity, OD 410)” value ([2]; HeLa cells pre-incubated 90 min) was “significant blocking of HSV-1 entry”. For the same molecule, the “concentration at which strong inhibition of entry was observed” value ([2]; natural target cells (HeLa and CF)) was under 1 µM, the “HSV-1 entry (β-galactosidase activity, OD 410)” value ([2]; primary human corneal fibroblasts (CF) pre-incubated 90 min) was “significant blocking of HSV-1 entry” and the “HSV-2 infection of HeLa cells (dose response, ONPG assay)” value [3] was “blocks infection”. The “HSV-1 viral entry (β-galactosidase activity, OD 410)” value (from here on “HSV-1 viral entry”) ([4]; CHO-K1 cells expressing 3-OST-3) was “blocked viral entry”, the “HSV-1 viral entry” value ([4]; CHO-K1 cells expressing HVEM) was “blocked viral entry” and the “HSV-1 viral entry” value ([4]; CHO-K1 cells expressing nectin-1) was “blocked viral entry”.
